We go through 19 molecules from patent US20220025002A1 (INSTITUT PASTEUR, published 2022).

Bridges are numbered along the chain shown (N, C = ends). Where no end group is shown, it is not given here. [ ]: non-standard residue; d: D form. GluOMe = glutamic acid methyl ester; R8 = C=CCCCCCC[C@@](C)(N)C(=O)O; S5 = C=CCCC[C@](C)(N)C(=O)O; Aib = CC(C)(N)C(=O)O

B1: A-UBI-SAHN D306-Q313 (conformer not stated) (peptide)
peptide: RQIKIWFQNRRMKWKKLKAQA[R8]IYKARF[S5]AERHAREK
modifications: staple 22-29; also: staple conformer not given here
B2: UBI-SAHN D306-A310 with the double substitution Glu-Gln (E315Q E320Q) (peptide)
peptide: LKAQA[S5]IYK[S5]RFQAQRHARQK
modifications: staple 6-10
B3: UBI-SAHN D306-Q313 OMe (peptide)
peptide: Ac-CLKAQA[R8]IYKARF[S5]A[GluOMe]RHAR[GluOMe]K
modifications: staple 7-14; also: N-terminal Cys labelled with BODIPY or FITC (which one not given here)
notes: also called D306 R8-Q313 S5 E315MeGlu E320MeGlu
B4: UBI-SAHN D306-Q313 Q/Q (peptide)
peptide: Ac-CLKAQA[R8]IYKARF[S5]AQRHARQK
modifications: staple 7-14; not fully specified (C-terminus); printed as LKAQAX2IYKARFX5AQRHARQK; also: extra N-terminal Cys labelled with BODIPY or FITC, staple cis/trans isomer not given here
notes: also called D306 R8-Q313 S5 E315Q E320Q
B5: A-UBI-SAHN D306-Q313 OMe (peptide)
peptide: Ac-CRQIKIWFQNRRMKWKKLKAQA[R8]IYKARF[S5]A[GluOMe]RHAR[GluOMe]K-NH2
modifications: staple 23-30; also: N-terminal Cys labelled with BODIPY or FITC, which one is not given here
B6: UBI-SAHN D306-A310 (peptide)
peptide: Ac-CLKAQA[S5]IYK[S5]RFQAERHAREK
modifications: staple 7-11; also: N-terminal Cys labelled with BODIPY or FITC, which one is not given here
notes: Stapled i,i+4; also called D306 R8-A310 S5
B7: UBI-AIB (peptide)
peptide: CLK[Aib]Q[Aib]DIYK[Aib]RFQ[Aib]ERH[Aib]REK
modifications: also: extra N-terminal Cys carries BODIPY or FITC label (not settled)
B8: A-UBI-SAHN D306-Q313, conformer B (peptide)
peptide: Ac-CRQIKIWFQNRRMKWKKLKAQA[R8]IYKARF[S5]AERHAREK-NH2
modifications: staple 23-30; also: extra N-terminal Cys labelled with BODIPY or FITC (label not settled), staple isomer B (trans)
notes: With N-terminal antennapedia; also called A-UBI-SAHND306-Q313 (B)
B9: UBI-SAHN A310-A314 (peptide)
peptide: Ac-CLKAQADIYK[S5]RFQ[S5]ERHAREK
modifications: staple 11-15; also: N-terminal Cys thiol labelled with BODIPY or FITC (BODIPY FL maleimide)
notes: Stapled i,i+4; also called A310S5-A314 S5
B10: UBI-SAHN A303-I307 (peptide)
peptide: Ac-CLK[S5]QAD[S5]YKARFQAERHAREK
modifications: staple 4-8; also: N-terminal Cys thiol labelled with BODIPY or FITC (BODIPY FL maleimide)
notes: Stapled i,i+4; also called A303 S5-I307 S5
B11: UBI-SAHN A303-A310, conformer B (peptide)
peptide: Ac-CLK[R8]QADIYK[S5]RFQAERHAREK
modifications: staple 4-11; not fully specified (C-terminus); also: extra N-terminal Cys labelled with BODIPY or FITC (label not settled), staple isomer B (trans)
notes: also called UBI-SAHNA303-A310 (B)
B12: A-UBI-SAHN D306-Q313, conformer A (peptide)
peptide: Ac-CRQIKIWFQNRRMKWKKLKAQA[R8]IYKARF[S5]AERHAREK-NH2
modifications: staple 23-30; also: extra N-terminal Cys labelled with BODIPY or FITC (label not settled), staple isomer A (cis)
notes: With N-terminal antennapedia; also called A-UBI-SAHND306-Q313 (A)
B13: A-UBI-AIB (peptide)
peptide: CRQIKIWFQNRRMKWKKLK[Aib]Q[Aib]DIYK[Aib]RFQ[Aib]ERH[Aib]REK
modifications: also: N-terminal Cys labelled with BODIPY or FITC
B14: A-UBI-SAHN A303-A310, conformer B (peptide)
peptide: Ac-CRQIKIWFQNRRMKWKKLK[R8]QADIYK[S5]RFQAERHAREK-NH2
modifications: staple 20-27; also: Cys1 thiol labelled with BODIPY or FITC (which one not fixed), conformer B
notes: With N-terminal antennapedia
B15: UBI-SAHN A303-A310, conformer A (peptide)
peptide: Ac-CLK[R8]QADIYK[S5]RFQAERHAREK
modifications: staple 4-11; not fully specified (C-terminus); also: extra N-terminal Cys labelled with BODIPY or FITC (label not settled), staple isomer A (cis)
notes: also called UBI-SAHNA303-A310 (A); A303 R8-A310 S5
B16: A-UBI-SAHN A310-A314 (peptide)
peptide: Ac-CRQIKIWFQNRRMKWKKLKAQADIYK[S5]RFQ[S5]ERHAREK-NH2
modifications: staple 27-31; also: N-terminal Cys thiol labelled with BODIPY or FITC (BODIPY FL maleimide)
notes: Stapled i,i+4 with N-terminal antennapedia
B17: A-UBI-SAHN A303-A310, conformer A (peptide)
peptide: Ac-CRQIKIWFQNRRMKWKKLK[R8]QADIYK[S5]RFQAERHAREK-NH2
modifications: staple 20-27; not fully specified; also: conformer A
notes: With N-terminal antennapedia; also called A-UBI-SAHNA303-A310 (A)
B18: Co-UBI-SAHN I307-A314, conformer B (peptide)
peptide: Ac-CELAQLQAELD[R8]VQAVVQ[S5]DKQELRKL
modifications: staple 12-19; not fully specified (C-terminus); also: extra N-terminal Cys labelled with BODIPY or FITC (label not settled), staple isomer B (trans)
notes: 26 aa control peptide; also called Co-SAHN I307-A314 (B)
B19: Co-UBI-SAHN I307-A314, conformer A (peptide)
peptide: Ac-CELAQLQAELD[R8]VQAVVQ[S5]DKQELRKL
modifications: staple 12-19; not fully specified (C-terminus); also: extra N-terminal Cys labelled with BODIPY or FITC (label not settled), staple isomer A (cis)
notes: 26 aa control peptide; also called Co-SAHN I307-A314 (A); I307 R8-A314 S5

T1 sequence (O88522 whole entry): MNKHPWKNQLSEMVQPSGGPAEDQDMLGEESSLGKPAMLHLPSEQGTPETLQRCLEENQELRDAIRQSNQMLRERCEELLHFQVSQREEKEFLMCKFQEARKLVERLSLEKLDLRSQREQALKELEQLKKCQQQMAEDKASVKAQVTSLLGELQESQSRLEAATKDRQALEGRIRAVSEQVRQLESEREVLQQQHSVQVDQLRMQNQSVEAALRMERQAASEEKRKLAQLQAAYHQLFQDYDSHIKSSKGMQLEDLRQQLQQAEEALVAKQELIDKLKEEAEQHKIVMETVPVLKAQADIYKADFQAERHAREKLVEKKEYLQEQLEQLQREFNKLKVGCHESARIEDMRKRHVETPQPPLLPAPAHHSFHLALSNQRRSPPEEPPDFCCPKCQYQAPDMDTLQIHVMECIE

The first experiment deals with NEMO (NF-kB essential modulator), human, in DLBCL cell lines (human, UniProt Q9Y6K9 1-419). Description: cell-based or functional assay.
NEMO (NF-kB essential modulator), human, in DLBCL cell lines, sequence (Q9Y6K9 whole entry): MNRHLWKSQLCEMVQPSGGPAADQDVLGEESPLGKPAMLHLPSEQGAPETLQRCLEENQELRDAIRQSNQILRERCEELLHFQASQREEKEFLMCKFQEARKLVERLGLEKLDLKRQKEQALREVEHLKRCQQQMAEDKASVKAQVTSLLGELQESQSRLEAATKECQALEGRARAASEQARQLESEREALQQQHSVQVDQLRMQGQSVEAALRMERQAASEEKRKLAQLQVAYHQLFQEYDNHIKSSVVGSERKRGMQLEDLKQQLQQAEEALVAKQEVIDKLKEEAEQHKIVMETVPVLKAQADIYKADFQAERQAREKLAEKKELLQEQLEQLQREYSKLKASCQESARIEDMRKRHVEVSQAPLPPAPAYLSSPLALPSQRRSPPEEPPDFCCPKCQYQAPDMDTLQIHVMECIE
Consider B1, for which the “EC50 of cell death, HLY1 cells, depending on incubation time” value lay within 0.65 to 1.1 µM; the “EC50 of cell death, OCY-Ly3 cells, 7 h” value came to 2.6 µM; the “EC50 of cell death, OCY-Ly3 cells, 24 h” value stood at 2.1 µM; the “EC50 of cell death, OCY-Ly3 cells, 48 h” value was 5 µM.

Another experiment has as its target T1, NEMO (NF-kB essential modulator) in 70Z3-C3 pre-B lymphocytes (UniProt O88522 1-412, limits assumed). The experiment in a line: cell-based or functional assay.
As for B2, the “IC50, NF-κB inhibition in 70Z3-C3 reporter cells” value was determined as 1.3 µM.
Still for that read-out and setting: under B3 stands 1.9 µM.
Still for that read-out and setting: under B4 stands 0.8 µM.

The target in a further experiment is T2, CC2-LZ domain of NEMO (mouse CC2-LZ) (mouse, UniProt O88522 251-337, limits assumed).
T2 construct: domain: CC2-LZ; The methods say that the mouse CC2-LZ was used in the fluorescence anisotropy assay; also called NOA; UBAN
T2 sequence (O88522 251-337 limits assumed): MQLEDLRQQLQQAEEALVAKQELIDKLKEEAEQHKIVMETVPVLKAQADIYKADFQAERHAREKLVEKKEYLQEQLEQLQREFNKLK
The experiment in a line: fluorescence polarization, labelled peptide, CC2-LZ titrated.
Broadly, the Kd is the concentration at which binding is half-saturated. B5 yielded a Kd of 0.06 µM.
Same read-out and setting: under B3 stands 24 µM; under B4, 23 µM.

The next experiment has as its target T2, CC2-LZ domain of NEMO (mouse CC2-LZ). The experiment in a line: fluorescence polarization, labelled peptide fixed at 0.1 µM, CC2-LZ titrated. A general note: Fluorescence polarisation rises when a labelled molecule tumbles more slowly, as on binding a larger partner.
Protocol: (§1) Anisotropy data were calculated using the Magellan software version 6.5. Prior experiments, the mouse CC2-LZ was extensively dialyzed in binding buffer containing 20 mM HEPES pH 7.4, 100 mM NaCl, and 0.05% P20 detergent (v/v). All experiments were performed in a 384 well plate (vol 25 μl) at room temperature. The BODIPY®-labeled peptide concentrations were fixed at 0.1 or 10 μM whereas the CC2-LZ concentration varied from 0 to 100 μM. Reference calibrated at 22 mP, was based on the fluorescence of the peptide alone. Each experimental binding curve was determined from at least 10 independent concentration points. The G-factor was calculated as previously described in Agou et al. [7], with a value of 0.75, which was observed constant within 5% upon all titrations. For analysis, the blank value corresponding to the value of buffer alone, was subtracted from all titration data. The integration time was 20 μs. Experiments were done in duplicate, and the KD was estimated by fitting the anisotropy data with the rectangular hyperbolic binding equation, using KaleidaGraph software as described elsewhere [1].
(§2) For each peptide titration, various concentration of the target ranging from 0 to 100 μM and a fixed concentration of peptide at 0.1 or 10 μM were used at 25° C. […] For these reasons, all further titration experiments were performed with a fixed peptide concentration of 0.1 μM unless otherwise indicated.
As for B6, binding was put at a Kd of 85 µM.
Same read-out and setting: next, B7: more than 10000 µM; B8: 0.05 µM; B9: approximately 360 µM.
The molecule B10 showed a dissociation constant Kd of approximately 360 µM.
The same measure, in the same setting: next, B11: 211 µM; B12: 0.06 µM.
Same read-out and setting: under B13 stands 5 µM; under B14, 0.02 µM; under B15, 76 µM.
Same read-out and setting: next, B16: 0.2 µM; B17: 0.3 µM.

A further experiment shares this target. The experiment in a line: fluorescence polarization, labelled peptide fixed at 10 µM, CC2-LZ titrated.
Protocol: as §1, §2
B7 displayed a dissociation constant (Kd) of more than 10000 µM.
Still for that read-out and setting: under B18 stands more than 10000 µM; under B13, 24 µM.
As for B19, the dissociation constant Kd was more than 10000 µM.
Same read-out and setting: next, B16: 21 µM.

The target in another experiment is T1, NEMO (NF-kB essential modulator) in …. Description: cell-based or functional assay. The source holds these as a separate data set.
Take B12: the “IC 50(µM), NF-κB inhibition in LPS-stimulated 70Z3-C3 lacZ reporter cells” value (“IC 50(µM), NF-κB inhibition” below) was 0.6 µM.
Same read-out and setting: next, B13: 1.5 µM.
In the case of B14, the “IC 50(µM), NF-κB inhibition” value is 0.6 µM.
As for B16, the “IC 50(µM), NF-κB inhibition” value came to 0.43 µM.
